Legend:
[1] = molecular target: T1, T4 Dda-E94C/A360C helicase (Enterobacteria phage T4, UniProt P32270 SEQ:1-439, E94C/A360C, then (ΔM1)G1G2); experiment: EMSA; one helicase bound from 238 nM, two from 475 nM up to 3800 nM; 100 nM DNA; settings: two 10T ssDNA regions
T1 sequence: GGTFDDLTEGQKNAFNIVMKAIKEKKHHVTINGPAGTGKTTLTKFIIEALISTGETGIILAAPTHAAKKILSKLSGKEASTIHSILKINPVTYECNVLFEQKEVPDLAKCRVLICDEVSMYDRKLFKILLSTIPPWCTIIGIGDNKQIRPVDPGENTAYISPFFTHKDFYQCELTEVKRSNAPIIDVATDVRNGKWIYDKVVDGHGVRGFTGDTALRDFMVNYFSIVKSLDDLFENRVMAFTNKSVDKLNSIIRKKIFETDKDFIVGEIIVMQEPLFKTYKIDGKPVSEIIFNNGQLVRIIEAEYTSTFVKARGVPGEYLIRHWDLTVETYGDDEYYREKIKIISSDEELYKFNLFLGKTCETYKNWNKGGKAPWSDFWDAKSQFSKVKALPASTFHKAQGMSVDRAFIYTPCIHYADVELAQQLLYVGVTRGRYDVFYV
Protocol: T4 Dda E94C/A360C was buffer exchanged into 25 mM phosphate pH 8.0, 151.5 mM KCl and serially diluted. The helicase and DNA were then mixed (1:1, v/v) with the DNA construct samples 9 and 10 described above (final concentration DNA=100 nM, helicase concentrations investigated=3800 nM, 1900 nM, 950 nM, 475 nM, 238 nM, 0 nM). The DNA and enzyme volumes were then incubated at ambient temperature for 1.5 hours. Dye free loading buffer (5×, 7.5 μL) was added to each sample (30 μL). Each sample (37.5 μL) was then loaded onto 4-20% TBE gel and run at 160 V for 90 minutes. The gel was then stained using SYBR.

[2] = molecular target: T1, T4 Dda-E94C/A360C helicase; experiment: EMSA; one enzyme bound only at 312.5-5000 nM; 1 uM DNA; 25 mM phosphate pH 8.0, 151.5 mM KCl; settings: 5' ssDNA overhang with duplex
Protocol: (§1) DNA constructs (1 μM or 100 nM final concentration) detailed below in Table 12 were incubated in appropriate buffer with serially diluted T4 Dda-E94C/A360C. The samples were then loaded on 4-20% TBE gels and run at 160 V for 90 minutes. The gels containing entries 1-6 were then stained using SYBR. […] The length of the region labelled 1 is varied from 2 to 50 to optimise conditions so that it is possible to control the number of T4 Dda-E94C/A360C helicases which can bind to the DNA,

[3] = molecular target: T1, T4 Dda-E94C/A360C helicase; experiment: EMSA; up to five helicases bound; ATP/MgCl2 gives strand displacement; settings: 50 nt ssDNA overhang with duplex
Protocol: (§2) The annealed DNA complexes (sequences tested are shown in table 11 below) were mixed in a ratio of (1:1, v/v) with T4 Dda-E94C/A360C in 25 mM phosphate pH 8.0, 200 mM KCl giving final concentrations of T4 Dda-E94C/A360C (2000 nM) and DNA (100 nM). The helicase was allowed to bind to the DNA for 2 hours at ambient temperature. Capture strand (SEQ ID NO: 37, 20 μM) was added to each sample to bind any unbound enzyme and the samples incubated at ambient temperature for 30 mins. Buffer was added to the samples (DNA construct from table 11=50 nM, capture DNA (SEQ ID NO: 37)=10 μM and T4 Dda-E94C/A360C=1000 nM) and they were incubated at ambient temperature for one hour (either Buffer 1=25 mM phosphate pH 8.0, 200 mM KCl, 20 mM MgCl2, 10 mM ATP or Buffer 2=25 mM phosphate pH 8.0, 1 M KCl, 25 mM potassium ferricyanide(III), 75 mM potassium ferrocyanide, 20 mM MgCl2, 10 mM ATP). Loading buffer (25 mM Phosphate pH8.0, 151.5 mM KCl, 25% Glycerol, 125 mM EDTA) is added to each sample to quench the helicase activity. The samples were loaded onto 4-20% TBE gel and the gel run at 160 V for 1.5 hours. The Gel was then stained with SYBR gold in order to observe the DNA bands.

[4] = molecular target: T1, T4 Dda-E94C/A360C helicase; experiment: EMSA; up to five helicases bound; one, faintly two, stalled after ATP/MgCl2; settings: 50 nt ssDNA overhang with duplex
Protocol: as §2

[5] = molecular target: T1, T4 Dda-E94C/A360C helicase; experiment: EMSA; one helicase stalled in at least one buffer with ATP/MgCl2; settings: 50 nt ssDNA overhang with duplex
Protocol: as §2

[6] = molecular target: T1, T4 Dda-E94C/A360C helicase; experiment: EMSA; up to six enzymes bound at 5000 nM; 1 uM DNA; settings: 5' ssDNA overhang with duplex
Protocol: as §1

[7] = molecular target: T1, T4 Dda-E94C/A360C helicase; experiment: EMSA; up to two enzymes bound; unbound only at 169 nM; 100 nM DNA; settings: 5' ssDNA overhang with duplex
Protocol: as §1

[8] = molecular target: T1, T4 Dda-E94C/A360C helicase; experiment: EMSA; unbound DNA only up to 3750 nM; 1 uM DNA; settings: 5' ssDNA overhang with duplex
Protocol: as §1

[9] = molecular target: T1, T4 Dda-E94C/A360C helicase; experiment: EMSA; two enzymes bound at 625-5000 nM, one at 312.5 nM; 1 uM DNA; settings: 5' ssDNA overhang with duplex
Protocol: as §1

[10] = molecular target: T1, T4 Dda-E94C/A360C helicase; experiment: EMSA; up to two enzymes bound; one faint at 169 nM; 100 nM DNA; settings: 5' ssDNA overhang with duplex
Protocol: as §1

[11] = molecular target: T1, T4 Dda-E94C/A360C helicase; experiment: EMSA; up to five helicases bound; one helicase stalled after ATP/MgCl2; settings: 50 nt ssDNA overhang with duplex
Protocol: as §2

B1: Table 16 construct 9 (non-forked) (mixed)
DNA 1: TTTTTTTTTTTTTTTTTTTTGGTTGTTTCTGTTGGTGCTGATATTGCGCCATCAGATTGTGTTTGTTAGTCGCT
DNA 2: GCAATATCAGCACCAACAGAAACAACC
DNA 3: AGCGACTAACAAACACAATCTGATGGC
modifications: 25 SpC3 at 5' end; 2 iSp18 after each SEQ 37; 4 nitroindoles between SEQ 10 and SEQ 41
B1: binds ([1]; two duplexes).

B2: Table 16 construct 10 (forked) (mixed)
DNA 1: B1 DNA 1
DNA 2: GCAATATCAGCACCAACAGAAACAACCT
DNA 3: AGCGACTAACAAACACAATCTGATGGC
modifications: 25 SpC3 at 5' end; 2 iSp18 after each SEQ 37; 4 nitroindoles between SEQ 10 and SEQ 41; 6 iSp18 at 3' end of SEQ 12
B2: binds ([1]; forked duplex).

B3: Table 12 construct 1 (10T region) (mixed)
DNA 1: TTTTTTTTTTTCGCTGCTCCACAGGTCTCAGCTTGAGCAGCGA
DNA 2: TCGCTGCTCAAGCTGAGACCTGTGGAGCAGCGA
modifications: 5 iSpC3 at 5' end; 4 iSpC3 between SEQ 37 and SEQ 36
B3: binds [2].

B4: Table 11 construct 1 (no spacers) (mixed)
DNA 1: TTTTTTTTTTTTTTTTTTTTTTTTTTTTTTTTTTTTTTTTTTTTTTTTTTTCGCTGCTCCACAGGTCTCAGCTTGAGCAGCGA
DNA 2: B3 DNA 2
B4: binds [3].

B5: Table 11 construct 9 (5 iSp18) (mixed)
DNA 1: B4 DNA 1
DNA 2: B3 DNA 2
modifications: 5 iSp18 between SEQ 9 and SEQ 36
B5: binds [4].

B6: Table 11 construct 3 (8 iSpC3) (mixed)
DNA 1: B4 DNA 1
DNA 2: B3 DNA 2
modifications: 8 iSpC3 between SEQ 9 and SEQ 36
B6: binds [5].

B7: Table 12 construct 3 (50T region) (mixed)
DNA 1: B4 DNA 1
DNA 2: B3 DNA 2
modifications: 5 iSpC3 at 5' end; 4 iSpC3 between SEQ 9 and SEQ 36
B7: binds [6].

B8: Table 11 construct 8 (4 iSp18) (mixed)
DNA 1: B4 DNA 1
DNA 2: B3 DNA 2
modifications: 4 iSp18 between SEQ 9 and SEQ 36
B8: binds [4].

B9: Table 12 construct 8 (18T region) (mixed)
DNA 1: TTTTTTTTTTTTTTTTTTTCGCTGCTCCACAGGTCTCAGCTTGAGCAGCGA
DNA 2: B3 DNA 2
modifications: 5 iSpC3 at 5' end; 4 iSp18 between SEQ 40 and SEQ 36
B9: binds [7].

B10: Table 12 construct 4 (2T region) (mixed)
DNA 1: TTTCGCTGCTCCACAGGTCTCAGCTTGAGCAGCGA
DNA 2: B3 DNA 2
modifications: 5 iSpC3 at 5' end; 4 iSpC3 between TT and SEQ 36
B10: no binding [8].

B11: Table 12 construct 2 (20T region) (mixed)
DNA 1: TTTTTTTTTTTTTTTTTTTTTCGCTGCTCCACAGGTCTCAGCTTGAGCAGCGA
DNA 2: B3 DNA 2
modifications: 5 iSpC3 at 5' end; 4 iSpC3 between SEQ 38 and SEQ 36
B11: binds [9].

B12: Table 12 construct 7 (16T region) (mixed)
DNA 1: TTTTTTTTTTTTTTTTTCGCTGCTCCACAGGTCTCAGCTTGAGCAGCGA
DNA 2: B3 DNA 2
modifications: 5 iSpC3 at 5' end; 4 iSp18 between SEQ 39 and SEQ 36
B12: binds [10].

B13: Table 11 construct 4 (12 iSpC3) (mixed)
DNA 1: B4 DNA 1
DNA 2: B3 DNA 2
modifications: 12 iSpC3 between SEQ 9 and SEQ 36
B13: binds [5].

B14: Table 11 construct 7 (3 iSp18) (mixed)
DNA 1: B4 DNA 1
DNA 2: B3 DNA 2
modifications: 3 iSp18 between SEQ 9 and SEQ 36
B14: binds [11].

B15: Table 11 construct 2 (4 iSpC3) (mixed)
DNA 1: B4 DNA 1
DNA 2: B3 DNA 2
modifications: 4 iSpC3 between SEQ 9 and SEQ 36
B15: binds [5].

B16: Table 12 construct 5 (4T region) (mixed)
DNA 1: TTTTTCGCTGCTCCACAGGTCTCAGCTTGAGCAGCGA
DNA 2: B3 DNA 2
modifications: 5 iSpC3 at 5' end; 4 iSpC3 between T4 and SEQ 36
B16: no binding [8].

B17: Table 11 construct 6 (2 iSp18) (mixed)
DNA 1: B4 DNA 1
DNA 2: B3 DNA 2
modifications: 2 iSp18 between SEQ 9 and SEQ 36
B17: binds [5].

B18: Table 11 construct 5 (1 iSp18) (mixed)
DNA 1: B4 DNA 1
DNA 2: B3 DNA 2
modifications: 1 iSp18 between SEQ 9 and SEQ 36
B18: binds [5].

Reference: patent publication US20160010147, “ENZYME STALLING METHOD” (OXFORD NANOPORE TECHNOLOGIES LIMITED, published 2016)
